T1: HAAH catalytic domain (human, UniProt Q12797)
T1 sequence: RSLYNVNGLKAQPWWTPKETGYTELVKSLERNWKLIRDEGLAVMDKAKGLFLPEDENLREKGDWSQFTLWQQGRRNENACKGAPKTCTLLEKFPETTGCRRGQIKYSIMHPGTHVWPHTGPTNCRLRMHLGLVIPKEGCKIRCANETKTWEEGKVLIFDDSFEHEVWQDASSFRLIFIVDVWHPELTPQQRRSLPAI

T2: Human aspartyl (asparaginyl) β-hydroxylase (HAAH) (human, UniProt Q12797)
T2 sequence: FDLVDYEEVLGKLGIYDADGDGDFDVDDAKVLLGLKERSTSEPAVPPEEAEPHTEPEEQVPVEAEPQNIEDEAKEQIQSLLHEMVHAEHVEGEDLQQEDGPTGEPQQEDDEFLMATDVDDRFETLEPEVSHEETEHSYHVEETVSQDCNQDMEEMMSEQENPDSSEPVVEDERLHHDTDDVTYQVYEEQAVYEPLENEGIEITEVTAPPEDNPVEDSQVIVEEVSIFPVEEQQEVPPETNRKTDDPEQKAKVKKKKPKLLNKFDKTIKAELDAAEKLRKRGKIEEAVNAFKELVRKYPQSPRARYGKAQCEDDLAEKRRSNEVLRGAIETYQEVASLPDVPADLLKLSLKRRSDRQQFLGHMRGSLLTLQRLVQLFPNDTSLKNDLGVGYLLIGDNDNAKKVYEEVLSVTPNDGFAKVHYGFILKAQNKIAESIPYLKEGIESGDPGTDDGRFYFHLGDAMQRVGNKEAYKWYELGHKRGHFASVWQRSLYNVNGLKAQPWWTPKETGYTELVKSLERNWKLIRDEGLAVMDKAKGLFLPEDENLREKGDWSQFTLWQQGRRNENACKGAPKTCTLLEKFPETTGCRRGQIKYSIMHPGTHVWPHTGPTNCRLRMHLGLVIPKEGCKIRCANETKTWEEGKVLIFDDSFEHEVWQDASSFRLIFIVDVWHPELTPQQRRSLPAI


Experiments:
[1] = target: T1, HAAH catalytic domain; assay: ELISA on plates coated with HAAH catalytic domain
Description: The catalytic domain of HAAH (HAAH-cat) is exposed at the surface of HAAH-expressing cancer cells. The binding of SNS622-MC-DM1 at different drug-antibody ratio (DAR) and pH to HAAH-cat was measured using IgG1λ as control. The plates were coated with HAAH by treating with […] HAAH catalytic domain overnight. Following blocking with 1% Non-Fat Dry Milk in PBS for one hour, the plates were incubated for 45 minutes at 37° C. with 11.1 mg/ml IgG1λ; 9.6 mg/ml SNS622; 4.8 mg/ml SNS622-MC-DM1 at DAR 2.5, pH 7.0; 5.9 mg/ml SNS622-MC-DM1 at DAR 2.5, pH8.0; 6.1 mg/ml SNS622-DM1 at DAR 5.0, pH 7.0; 5.7 mg/ml SNS622-MC-DM1 at DAR 5.0, pH8.0; 4.1 mg/ml SNS622-DM1 at DAR 10.0, pH7.0; or 4.4 mg/ml SNS622-MC-DM1 at DAR 10.0, pH8.0. Following 5 PBS rinses the plates were incubated with 1:100 goat anti-human IgG (8)-HRP for 30 minutes at 37° C., Following five PBS rinses TMB substrate was added, and after a 15-minute incubation at room temperature, Stop solution was added to terminate the reactions. The plates were read at 450 nm using a 96-well plate reader (ELx808, BioTek). The binding results are shown below in Table VI

[2] = target: T2, Human aspartyl (asparaginyl) …; assay: cell-based or functional assay

Row | Binder | % Binding [1] [%] | IC50 of MTS, H460 cells, 72 h [2] [nM]
1 | SNS622-DM1A2 (antibody, V domains shown, MC-DM1 on cysteine thiols of reduced disulfide bonds, positions not given; reaction DAR 2.5:1, pH 8, final DAR 2.10; MC-DM1 on cysteine thiols of reduced disulfide bonds, positions not given) VH: QVQLQQSGPGLVKPSQTLSLTCAISGDSVSSNSAAWNWIRQSPSRGLEWLGRTYYRSKWYNDYAVSVKSRITINPDTSKNQFSLQLNSVTPEDTAVYYCARTGYSSSWVVNFDYWGQGTLVTVSS VL: QPVLTQSPSASGTPGQRVTISCSGSSSNIGSNYVYWYQQLPGTAPKLLIYKNNQRPSGVPDRFSGSKSGTAASLAISGLQSEDEADYYCAAWDDSLRGYVFGTGTKLTVLG | 84.8 | 
2 | SNS622-DM1B1 (antibody, V domains shown, MC-DM1 on cysteine thiols of reduced disulfide bonds, positions not given; reaction DAR 5:1, pH 7, final DAR 3.22; MC-DM1 on cysteine thiols of reduced disulfide bonds, positions not given) VH: QVQLQQSGPGLVKPSQTLSLTCAISGDSVSSNSAAWNWIRQSPSRGLEWLGRTYYRSKWYNDYAVSVKSRITINPDTSKNQFSLQLNSVTPEDTAVYYCARTGYSSSWVVNFDYWGQGTLVTVSS VL: QPVLTQSPSASGTPGQRVTISCSGSSSNIGSNYVYWYQQLPGTAPKLLIYKNNQRPSGVPDRFSGSKSGTAASLAISGLQSEDEADYYCAAWDDSLRGYVFGTGTKLTVLG | 81.2 | 
3 | SNS622-DM1B2 (antibody, V domains shown, MC-DM1 on cysteine thiols of reduced disulfide bonds, positions not given; reaction DAR 5:1, pH 8, final DAR 3.36; MC-DM1 on cysteine thiols of reduced disulfide bonds, positions not given) VH: QVQLQQSGPGLVKPSQTLSLTCAISGDSVSSNSAAWNWIRQSPSRGLEWLGRTYYRSKWYNDYAVSVKSRITINPDTSKNQFSLQLNSVTPEDTAVYYCARTGYSSSWVVNFDYWGQGTLVTVSS VL: QPVLTQSPSASGTPGQRVTISCSGSSSNIGSNYVYWYQQLPGTAPKLLIYKNNQRPSGVPDRFSGSKSGTAASLAISGLQSEDEADYYCAAWDDSLRGYVFGTGTKLTVLG | 89.5 | 
4 | SNS622-DM1C1 (antibody, V domains shown, MC-DM1 on cysteine thiols of reduced disulfide bonds, positions not given; reaction DAR 10:1, pH 7, final DAR 5.08; MC-DM1 on cysteine thiols of reduced disulfide bonds, positions not given) VH: QVQLQQSGPGLVKPSQTLSLTCAISGDSVSSNSAAWNWIRQSPSRGLEWLGRTYYRSKWYNDYAVSVKSRITINPDTSKNQFSLQLNSVTPEDTAVYYCARTGYSSSWVVNFDYWGQGTLVTVSS VL: QPVLTQSPSASGTPGQRVTISCSGSSSNIGSNYVYWYQQLPGTAPKLLIYKNNQRPSGVPDRFSGSKSGTAASLAISGLQSEDEADYYCAAWDDSLRGYVFGTGTKLTVLG | 11.7 | 
5 | SNS622-DM1C2 (antibody, V domains shown, MC-DM1 on cysteine thiols of reduced disulfide bonds, positions not given; reaction DAR 10:1, pH 8, final DAR 5.81; MC-DM1 on cysteine thiols of reduced disulfide bonds, positions not given) VH: QVQLQQSGPGLVKPSQTLSLTCAISGDSVSSNSAAWNWIRQSPSRGLEWLGRTYYRSKWYNDYAVSVKSRITINPDTSKNQFSLQLNSVTPEDTAVYYCARTGYSSSWVVNFDYWGQGTLVTVSS VL: QPVLTQSPSASGTPGQRVTISCSGSSSNIGSNYVYWYQQLPGTAPKLLIYKNNQRPSGVPDRFSGSKSGTAASLAISGLQSEDEADYYCAAWDDSLRGYVFGTGTKLTVLG | 80.5 | 
6 | SNS622-MC-MMAE (antibody, V domains shown, MC-MMAE on cysteine thiols of reduced disulfide bonds, positions not given; reaction DAR 10:1 gives final DAR 5.72 (also made at 2.5:1 and 5:1); MC-MMAE on cysteine thiols of reduced disulfide bonds, positions not given) VH: QVQLQQSGPGLVKPSQTLSLTCAISGDSVSSNSAAWNWIRQSPSRGLEWLGRTYYRSKWYNDYAVSVKSRITINPDTSKNQFSLQLNSVTPEDTAVYYCARTGYSSSWVVNFDYWGQGTLVTVSS VL: QPVLTQSPSASGTPGQRVTISCSGSSSNIGSNYVYWYQQLPGTAPKLLIYKNNQRPSGVPDRFSGSKSGTAASLAISGLQSEDEADYYCAAWDDSLRGYVFGTGTKLTVLG |  | 48
7 | SNS622-MC-vc-PAB-DM1 (antibody, V domains shown, MC-vc-PAB-DM1 on cysteine thiols of reduced disulfide bonds, positions not given; reaction DAR 10:1 gives final DAR 6.56 (also made at 2.5:1 and 5:1); MC-vc-PAB-DM1 on cysteine thiols of reduced disulfide bonds, positions not given) VH: QVQLQQSGPGLVKPSQTLSLTCAISGDSVSSNSAAWNWIRQSPSRGLEWLGRTYYRSKWYNDYAVSVKSRITINPDTSKNQFSLQLNSVTPEDTAVYYCARTGYSSSWVVNFDYWGQGTLVTVSS VL: QPVLTQSPSASGTPGQRVTISCSGSSSNIGSNYVYWYQQLPGTAPKLLIYKNNQRPSGVPDRFSGSKSGTAASLAISGLQSEDEADYYCAAWDDSLRGYVFGTGTKLTVLG |  | 123

Reference: patent US20200390902A1, “Antibody-Drug Conjugates Targeted at Human Aspartyl-(Asparaginyl)-B-Hydroxylase (HAAH)” (Panacea Pharmaceuticals, Inc., priority 2017, published 2020)
